Source: patent publication US20130224191A1, “NOTUM PROTEIN MODULATORS AND METHODS OF USE” (priority 2010, published 2013)
“Also recorded” adds a separate entry of the source.

Columns and labels:
[1] = target: T1, porcine pancreatic lipase (Sus scrofa, UniProt P00591); experiment: Inhibition of porcine pancreatic lipase (Tween 20); assay type: biochemical
T1 construct: purchased Sigma Aldrich
T1 sequence (P00591 1-450): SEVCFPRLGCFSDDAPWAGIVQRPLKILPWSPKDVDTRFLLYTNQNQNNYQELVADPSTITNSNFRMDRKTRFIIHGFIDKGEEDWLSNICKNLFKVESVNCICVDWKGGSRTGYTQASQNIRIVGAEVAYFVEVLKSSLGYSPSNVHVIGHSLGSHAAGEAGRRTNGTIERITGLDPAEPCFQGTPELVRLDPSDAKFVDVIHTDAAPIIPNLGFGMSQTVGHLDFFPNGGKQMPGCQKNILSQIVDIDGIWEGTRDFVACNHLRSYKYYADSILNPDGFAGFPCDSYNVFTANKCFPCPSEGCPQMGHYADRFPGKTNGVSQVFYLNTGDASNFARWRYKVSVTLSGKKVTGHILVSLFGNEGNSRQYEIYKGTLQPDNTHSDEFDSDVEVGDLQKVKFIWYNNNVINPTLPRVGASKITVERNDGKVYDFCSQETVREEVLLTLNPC
Method: Briefly, recombinant hNotum (1 μg/well) was added to an assay buffer containing 50 mM Tris, pH 7.4, 33.3 mM CaCl2, and 0.33% Tween-20. When the Tween 20 monolauryl group is cleaved by lipases (e.g. hNotum), the free fatty acid forms an insoluble complex with the Ca^2+ cations resulting in a turbid solution, the OD of which can be measured at 405 nm to provide a measure of lipase activity. As a positive control, the activity of porcine pancreatic lipase (Sigma Aldrich) was measured in the same assay.
In order to take advantage of this enzymatic property and further exemplify the properties of the present invention, an assay was run to determine the effects of Notum modulators on the lipolytic activity of Notum. To that end, various concentrations of SC2.D2.2 were preincubated with hNotum for a set period prior to adding the mixture to the assay buffer and measuring the resulting enzymatic activity as described above. The results of the assay are graphically represented in FIG. 20

[2] = tested on: macaque Notum N141D; experiment: Neutralization of point mutated macaque Notum, TCF assay; assay type: cell-based
From the text: Similarly, the macaque residue at this position was point mutated to the human residue (N141D). […] However, these point mutants differed in their ability to be neutralized by SC2.D2.2 (FIG. 26).

[3] = target: T2, Notum (Homo sapiens, UniProt Q6P988); experiment: 293.TCF assay with rhWnt3A, standard and preincubation protocol; assay type: cell-based
T2 sequence (Q6P988 20-496): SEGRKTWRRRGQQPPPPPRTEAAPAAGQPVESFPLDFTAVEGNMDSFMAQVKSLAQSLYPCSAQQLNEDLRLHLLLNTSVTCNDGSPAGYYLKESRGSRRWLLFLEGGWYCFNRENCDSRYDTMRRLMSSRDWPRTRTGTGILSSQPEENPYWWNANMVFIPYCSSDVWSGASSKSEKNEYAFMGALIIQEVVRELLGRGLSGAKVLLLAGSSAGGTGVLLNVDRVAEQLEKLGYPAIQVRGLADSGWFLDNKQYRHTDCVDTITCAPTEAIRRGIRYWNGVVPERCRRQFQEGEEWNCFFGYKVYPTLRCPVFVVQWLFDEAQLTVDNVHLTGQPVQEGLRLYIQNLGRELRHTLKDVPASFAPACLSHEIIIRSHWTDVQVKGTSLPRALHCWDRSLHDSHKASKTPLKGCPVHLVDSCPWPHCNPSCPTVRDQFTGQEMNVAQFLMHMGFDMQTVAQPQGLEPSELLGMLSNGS
Method: In order to determine the kinetics of Notum mediated antagonism of Wnt3A signaling, recombinant Notum alone or in the presence of SC2.D2.2 was preincubated with recombinant human Wnt3A (rhWnt3A) for 2 hours at 37° C., prior to addition of the complexes to 293.TCF cells. This resultant induction of luciferase by the rhWnt3A was compared to that observed using the standard protocol for the 293.TCF assay, in which Notum alone or Notum+SC2.D2.2 was added to the cells for two hours prior to the addition of rhWnt3A. […] Of interest however, is the preincubation of Notum and rhWnt3A prior to addition to the 293.TCF cells. In this case the response of the cells to rhWnt3A is reduced greatly (closed circles FIG. 27B).

[4] = target: T2, Notum; experiment: Neutralization of human Notum activity in 293.TCF luciferase assay; assay type: cell-based; design: 8x-His; Strep-tag II; IgK signal peptide/leader of the pSEC-CAG vector (N); made in house; host or cells: HEK293T (adherent) / suspension 293 cells
Method: Using the 293.TCF cells described above, supernatants from hybridomas and/or purified antibodies shown to bind Notum by ELISA assays (Example 9) were screened for their ability to neutralize hNotum-His or hNotum-Fc activity as follows. 2.5×10^4 293.TCF cells were plated per well of a 96-well tissue culture plate in 50 μL of serum-free medium. After 23 hours of serum starvation, 10 μL of DMEM+0.2% FBS containing various Notum proteins at various concentrations were mixed with either 15 μL of supernatant from the hybridoma, or 15 μL of purified antibody at various concentrations, and allowed to incubate for 5 minutes at room temperature. The 25 μL antibody:Notum mixture was then added to the 293.TCF cells. After 1 hour, 25 μL of Wnt3A or control L-cell CM were added to each well. Eighteen hours after addition of CM, 100 μL of One-Glo solution (ProMega Corp.) was added to each well. The contents of each well were then mixed thoroughly to lyse the cells, 100 μL of lysate transferred to black 96-well plates, and the luminescence read after 5 minutes. […]

B1: SC2.D2.2 (antibody, V domains shown)
VH: DVQLVESGGGLVQPGGSRKISCAASGFTFSSYGMHWVRQAPEKGLEWVAYISSSTVTTYYADTVKGRFTISRDNANNTLFLQMTSLRSEDTAMYYCSRQNWDGGYFDVWGAGTTVTVSS
VL: DIVLTQSLASLAVSLGQRATISCRASKSVSSSGYSYMHWYQQKPGQPPKLLIYLASNLESGVPARFSGSGSGTDFTLNIHPVEEEDAATYYCQHSRALPLTFGAGTKLELKR
notes: also called murine SC2.D2.2
effect on lipase activity of porcine pancreatic lipase [1]: not severely impacting the lipase activity | neutralization of mutant Notum protein [2]: now enabled SC2.D2.2 to neutralize the mutant protein | effect on response of cells to rhWnt3A ([3]; Notum complexed with antibody prior to preincubation with rhWnt3A, 2 hours at 37° C.): restores the sensitivity of the cells to rhWnt3A | effect on Notum antagonism of rhWnt3A ([3]; standard protocol, 10 μg/mL antibody, 250 ng/mL rhWnt3A): blocks the ability of Notum to antagonize the rhWnt3A | inhibition of human Notum activity [4]: acts in a concentration dependent manner to antagonize the effects of added hNotum-His; also recorded: can inhibit the activity of human Notum in a dose dependent fashion; also recorded: specifically inhibit the human version of Notum
